Measured values: US20200181245A1 (University of California, published 2020)

Columns and labels:
[1] = biological target: T1, tau352 (human tau isoform 352, 15N-labelled, His tag removed by TEV cleavage) (human, UniProt P10636-2 2-352); assay: 2D 1H-15N HSQC NMR, about 1:1 molar ratio
T1 construct: mature; Uniformly 15N-labelled for NMR
Method: The interaction between scFv and tau352 was further studied by NMR spectroscopy. For this purpose, tau352 and 3RT antibody were recombinantly expressed in E. coli and HEK293 cells, respectively. 2D ¹H-¹⁵N heteronuclear single quantum coherence (HSQC) spectra were recorded on tau352 in absence and presence of 3RT antibody (FIG. 10A). The HSQC of tau352 has a narrow chemical shift dispersion indicative of an intrinsically disordered protein (FIG. 10A).
NMR experiments were recorded on a Bruker Avance 800 MHz spectrometer with 5% D₂O as lock solvent at 25° C. The 2D ¹H-¹⁵N HSQC experiments were recorded on a […] ¹⁵N labeled tau352 sample, for the interaction measurement an approximate 1:1 molar ratio between tau352 and scFv was used. For the 2D ¹⁵N HSQC, 512 data points were recorded in the indirect dimension with 128 scans per point for free tau352 and scFv-bound tau352.

[2] = biological target: T2, His and avidin-tagged 3RTau (352), recombinant full length 3R Tau protein (UniProt P10636-2 2-352, limits assumed); assay: ELISA and immunoblot
T2 construct: mature; Used for phage panning, ELISA (immobilized) and immunoblot; The His and avidin tags are not described further; also called 3RT protein; 3-repeat Tau
T2 sequence (P10636 other isoform, or with tags, fused parts or gaps limits assumed): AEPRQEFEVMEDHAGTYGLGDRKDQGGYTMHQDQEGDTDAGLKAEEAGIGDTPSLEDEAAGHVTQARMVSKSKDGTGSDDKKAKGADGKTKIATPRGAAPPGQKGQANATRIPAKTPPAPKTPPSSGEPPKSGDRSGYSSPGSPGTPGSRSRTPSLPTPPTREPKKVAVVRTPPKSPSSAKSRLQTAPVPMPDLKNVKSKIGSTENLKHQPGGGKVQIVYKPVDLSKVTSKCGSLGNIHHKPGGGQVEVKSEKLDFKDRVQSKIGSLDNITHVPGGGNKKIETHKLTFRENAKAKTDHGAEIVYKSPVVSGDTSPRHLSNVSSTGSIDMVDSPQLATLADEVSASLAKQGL

T1 sequence (P10636 other isoform, or with tags, fused parts or gaps): as the sequence (P10636 other isoform, or with tags, fused parts or gaps limits assumed) above

B1: 3RT single chain antibody (Clone 5F10) (scFv)
scFv: MEQVNLRESGAEVKKPGASVKVSCKVSGYTFTGYYMHWVRQAPGQGLEWMGWINSNSGATKYAQKFQGRVTMTRDTSITTAYMELSSLRSDDTAVYYCARGARDGYGFDYWGQGTLVTVLAGGGGSGGGGSGGGGSGAPSYVLTQPPSASGTPGQRVTISCSGGSSNIGSNAVSWYQQLPGTAPKLLIFTNDQRPSGVPDRFSGSKSGTSAPLAISGLQSEDESDYYCATWDDSLNGWVFGGGTKVTVRS
notes: Human scFv from a phage display library; It was expressed from mammalian scFV cassettes; also called 3RT scFV; 3RTau scFV
binding result [1]: binds | binding result [2]: binds
